Laboratory results reported in patent publication US20100074886A1, “CCR2 ANTAGONISTS FOR TREATMENT OF FIBROSIS” (priority 2006, published 2010).

Biological target: Human MCP-1 (CCL2), monocyte chemoattractant protein 1 (human), P13500
Assay: cell-based or functional assay

Sequence of Human MCP-1 (CCL2), monocyte chemoattractant protein 1 (human), P13500 (P13500 24-99): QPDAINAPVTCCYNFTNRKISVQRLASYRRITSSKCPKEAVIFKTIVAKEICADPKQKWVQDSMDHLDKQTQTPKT

CCL2 gene expression in fibrotic cell line 126, percent of untreated cell level (percent of untreated cell level): 2
CXCL5 gene expression in fibrotic cell line 126, percent of untreated cell level (percent of untreated cell level): < 1
CXCL5 protein level in supernatant of fibrotic cell line 126 with Anti-CCL2: 32
CXCL5 protein, percent of untreated (percent of untreated): < 1
G-CSF protein level in supernatant of fibrotic cell line 126 with Anti-CCL2: 1
G-CSF protein, percent of untreated (percent of untreated): < 1
IL6 gene expression in fibrotic cell line 126, percent of untreated cell level (percent of untreated cell level): < 1
IL6 protein level in supernatant of fibrotic cell line 126 with Anti-CCL2: 40
IL6 protein, percent of untreated (percent of untreated): < 1
IL8 protein level in supernatant of fibrotic cell line 126 with Anti-CCL2: 308
IL8 protein, percent of untreated (percent of untreated): 2
IL13Ra2 gene expression in fibrotic cell line 126, percent of untreated cell level (percent of untreated cell level): 5
VEGF protein level in supernatant of fibrotic cell line 126 with Anti-CCL2: 175
VEGF protein, percent of untreated (percent of untreated): 23
fold reduction of G-CSF protein with CNTO 888: 6800 fold
fold reduction of VEGF protein with CNTO 888: 4 fold
B1: CCL2-neutralizing antibody CNTO888 (antibody, V domains shown)
VH: QVQLVQSGAEVKKPGSSVKVSCKASGGTFSSYGISWVRQAPGQGLEWMGGIIPIFGTANYAQKFQGRVTITADESTSTAYMELSSLRSEDTAVYYCARYDGIYGELDFWGQGTLVTVSS
VL: not shown
modifications: not checked
